Experimental data reported in patent US12441790B2, “Binding proteins to the human thrombin receptor, PAR4” (MONASH UNIVERSITY, priority 2017, dated 2025).
“Also recorded” adds a separate entry of the source.

How the values were obtained:
[1] = test system: hPAR4 peptides 1-9, 8-15 and 11-20; experiment: Epitope mapping ELISA with overlapping hPAR4 peptides; type: binding, human; conditions: peptides coated at 10 ug/ml
Method: Briefly the peptides were coated onto a Nunc maxisorp ELISA plate at 10 ug/ml overnight in coating buffer (0.1M sodium carbonate pH8.0). Purified mAbs diluted in PBS were used in place of supernatant.

[2] = test system: PAR4-120Ala and PAR4-120Thr variants; experiment: PAR4 thrombin cleavage assay on PAR4 variants in HEK293T cells; type: cell-based, human; conditions: for inhibition of thrombin cleavage of Ala120 and Thr120 PAR4 variants: pre-incubation 1, 10 or 100 μg/ml before thrombin
Method: 1×10^6 HEK293T cells (in Dulbecco's modified eagle's medium+10% foetal calf serum) were seeded onto 12-well plates 24 hours before transfection. When confluent, they were transiently transfected with 1 μg of DNA from one of the PAR4 variants (expression vectors pBJ-FLAG-PAR4-120A-296F or pBJ-FLAG-PAR4-120T-296F; Edelstein et al (2014) Blood 124(23):3450-8) plus 4 μL of Lipofectamine 2000, as per manufacturer's instructions. Forty-eight hours after transfection, cells were harvested and washed twice with PBS, then resuspended to a count of 1×10^6/mL. Cells (50 μL assays/0.5×10^5 cells per condition) were then pre-treated with either 1, 10 or 100 μg/mL of 5RC3 or sub-clone 5A.RC3.F10b.H4b or 100 μg/mL matched Isotype control (mouse IgG1) for 15 minutes at 37° C. Cells were then stimulated with 2 U/mL of thrombin for 10 minutes. The reaction was stopped by the addition of 4 U/mL hirudin. Cells were then washed once and resuspended with PBS containing a 1:200 dilution of FITC anti-FLAG antibody (Sigma, clone M2) and incubated for 1 hour at room temperature in the dark. Cells were then fixed with 1% paraformaldehyde (final concentration) and read on a FACSCalibur flow cytometer to determine % of FL1/FITC-Positive events. Data were normalised against the resting sample (100%, no thrombin treatment).
In order to determine whether the anti-PAR4 clones could inhibit the effects of thrombin on PAR4 cleavage, in vitro inhibition assays were performed. HEK293T cells were transiently transfected with the PAR4-120Ala (A) or PAR4-120Thr (T) variants which contained a FLAG epitope upstream of the thrombin cleavage site. Cleavage of PAR4 by thrombin was measured by loss of Flag tag from the PAR4 expressing HEK293 cells using flow cytometry.
Cells were stimulated with increasing doses of thrombin (0.1-2 U/ml) and the amount of thrombin cleavage was measured as a loss of FLAG epitope using a FITC-conjugated anti-FLAG antibody by flow cytometry.

human isolated platelets = experiment: Binding to human platelets by flow cytometry; conditions: 10 μg/ml, against isotype control
Method: Human or mouse washed platelets (5×10^7/mL) were incubated with anti-PAR4 antibody (0.1 mg/ml) for 30 mins at 37° C. and then fixed with paraformaldehyde 1% v/v final concentration). The suspension was then centrifuged at 1000×g for 2 min to obtain the platelet pellet, which was then resuspended in modified Tyrode's buffer (12 mM NaHCO3, 10 mM HEPES pH 7.4, 137 mM NaCl, 2.7 mM KCl, 5.5 mM D-glucose, 1 mM CaCl2) containing a 1:50 dilution of an FITC-conjugated […] IgG. After 30 mins at room temperature, the samples were centrifuged again, and the platelet pellet was resuspended in modified Tyrode's buffer an analysed by use of a flow cytometer (FACSCalibur, BD Biosciences).
Clone 5A.RC3 was tested for binding to isolated human platelets in vitro. Analysis of binding was determined using flow cytometry. Isolated platelets were incubated with either mouse IgG1 (isotype control) or 5A.RC3 and tested for binding to PAR4. CD41a which is a marker expressed on platelets was used as a positive control.
The binding of five anti-PAR4 monoclonal antibodies to human platelets was examined by flow cytometry.

human whole blood = experiment: Human whole blood thrombosis assay; type: cell-based
Method: Human whole blood collected in citrate (3.2%) was pre-incubated for 15 min at 37° C. with PE-conjugated anti-CD9 antibody (4 μg/mL) and an anti-fibrin antibody (5 μg/ml), and one of hirudin (800 U/ml), DMSO (1% v/v), PAR-1 antagonist E5555 (1 μM), anti-PAR4 antibody (0.2 mg/ml) or the combination of both PAR inhibitors. Whole blood was re-calcified with 5-7.5 mM CaCl2 (final concentration) to initiate coagulation, and drawn over glass microslides (1×0.1 mm internal diameter) coated with bovine type 1 collagen (250 μg/ml) at a fixed flow rate of 0.06 ml/min, resulting in a wall shear rate of 600 s^−1. Dual colour confocal fluorescence images were recorded at 488 and 561 nm excitation, collected through a 40× water immersion objective. Confocal z-stacks were continuously recorded for 2 min before modified, calcium-free Tyrode's buffer was flowed over the thrombi and z-stacks encompassing the entire height of the thrombus field were recorded over a period of 10 min. Platelet thrombi were defined using anti-CD9-PE and fibrin volume was quantified using average fluorescence of the thrombus field. Data were normalised against the hirudin baseline and expressed as a percentage of the control.
Thrombosis parameters including platelet deposition, thrombin activity, fibrin volume and ratio of fibrin per thrombus were measured in real-time over a period of 10 minutes in a whole blood thrombosis assay as described herein under conditions of coagulation.
Platelet deposition (PE-conjugated anti-CD9), thrombin activity (FRET-based thrombin probe), fibrin volume (Dylight650-conjugated anti-fibrin antibody) and the ratio of fibrin per thrombus at the 10 minute end-point is shown in FIG. 10A by confocal microscopy (to allow for volume measurements to be taken) using a Nikon Air with a 25× lens and 2× digital magnification.
The volume of human thrombi formed after 3 min was quantified by confocal microscopy in an ex vivo human whole blood thrombosis assay.

[3] = 10 minute endpoint, 5A.RC3 100 μg/ml, hirudin 800 U/ml

B1: 5A.RC3: anti-PAR4 monoclonal antibody, IgG2a/K, VH SEQ ID NO:11 and VL SEQ ID NO:12 (antibody, V domains shown)
VH: QVQLVESGGGVVQPGRSLRLSCAASGFTLSNYGMHWVRQAPGKGLEWVSVIWYDGSNKHYADSVKGRFTISRDNSKNTLYLQMNSLRAEDTAVYYCARESIVEVLPPFDYWGQGTLVTVSS
VL: KIVLTQSPGTLSLSPGERVTLSCRASQRVRNNYLAWFQQKPGQAPRLFIYGASSRATGIPDRFSGSGSGTDFIFTISRLEPEDFAVYYCQQYGNSYTFGQGTKLEIK
modifications: VH of 5A.RC3; VL of 5A.RC3
hPAR4 peptide the mAb reacted with [1]: amino acid residues 8-15
reversal of inhibition by the immunising peptide [2]: reversed
inhibition of thrombin cleavage of Ala120 and Thr120 PAR4 variants [2]: near complete inhibition of thrombin cleavage; also recorded: significantly inhibited thrombin induced PAR4 cleavage
inhibition of thrombin cleavage of Ala120 and Thr120 PAR4 variants ([2]; listed as 5A.RC3.H4b): effectively inhibited cleavage of PAR4 expressed on the surface of HEK293 cells in a dose dependent manner
binding to PAR4 on isolated human platelets (human isolated platelets): binds human PAR4 in isolated platelets
total thrombus volume (human whole blood; 100 μg/ml, thrombi formed after 3 min): reduced total thrombus volume
ratio of fibrin per thrombus volume (human whole blood; 10 minute endpoint, 5A.RC3 100 μg/ml): significantly inhibited
fibrin volume (human whole blood; [3]): significantly inhibited
platelet deposition (human whole blood; [3]): no effect
thrombin activity (human whole blood; [3]): significantly inhibited
